From publication PMC7504222

Biological target: C-X-C motif chemokine receptor 4 (CXCR4) (human (endogenous in primary CD4+ T cells)) (UniProt P61073)
UniProt P61073, sequence (P61073 whole entry): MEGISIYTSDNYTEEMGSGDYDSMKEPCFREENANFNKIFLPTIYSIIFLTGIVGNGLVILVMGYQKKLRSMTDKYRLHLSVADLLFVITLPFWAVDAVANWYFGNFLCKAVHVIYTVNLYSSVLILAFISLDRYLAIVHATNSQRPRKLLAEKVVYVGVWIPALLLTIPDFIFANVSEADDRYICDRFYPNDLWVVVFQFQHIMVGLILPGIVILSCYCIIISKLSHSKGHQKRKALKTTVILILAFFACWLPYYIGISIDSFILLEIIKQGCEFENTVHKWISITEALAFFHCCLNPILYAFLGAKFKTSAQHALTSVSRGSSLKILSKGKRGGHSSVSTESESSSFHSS

median fluorescence intensity of MitoTracker Deep Red-labelled mitochondria on CD4+ T cells after 2 h co-culture, with 20 µg/mL blocking SDF-1 Ab; flow cytometry: 21.1
median fluorescence intensity of MitoTracker Deep Red-labelled mitochondria on CD4+ T cells after 2 h co-culture, without SDF-1 Ab; flow cytometry: 44.8
Substance: stromal cell-derived factor-1 (SDF-1) (from UniProt P48061 22-93) (ligand)
